Positions count from the first letter of the chain named.
T1: human CD20 (human, UniProt P11836 1-297)
T1 sequence: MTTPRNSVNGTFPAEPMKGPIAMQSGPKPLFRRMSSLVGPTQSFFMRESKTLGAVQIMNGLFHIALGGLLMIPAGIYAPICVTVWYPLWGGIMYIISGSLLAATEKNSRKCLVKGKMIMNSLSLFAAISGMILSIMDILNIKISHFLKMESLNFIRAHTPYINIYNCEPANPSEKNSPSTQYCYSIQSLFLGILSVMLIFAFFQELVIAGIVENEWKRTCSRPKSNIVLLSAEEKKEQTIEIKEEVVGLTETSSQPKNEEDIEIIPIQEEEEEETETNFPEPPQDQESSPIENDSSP

T2: mutant human CD20 #3 (A170S, P172S) (human, UniProt P11836 1-297)
T2 construct: Stably expressed on MG87 cells
T2 chain: T1 sequence with A170S, P172S

T3: mutant human CD20 #7 (Y77F, N163D) (human, UniProt P11836 1-297)
T3 construct: Stably expressed on MG87 cells
T3 chain: T1 sequence with Y77F, N163D

T4: mutant human CD20 #2 (N163D) (human, UniProt P11836 1-297)
T4 construct: Stably expressed on MG87 cells
T4 sequence: T1 sequence with N163D

B1: 10E3-17 (antibody, V domains shown)
VH: EVQLVESGGGLVQPGRSLRLSCAASGFTFRDYAMHWVRQVPGKGLEWVSGISWNRGTIGYADSVKGRFTISRDNAKNSLFLQMNSLRADDTALYYCAKDHYYGSGSPYGMDVWGQGTTVTVSS
VL: EIVLTQSPATLALSPGERATLSCRASQSVSKYLAWYQQKPGQAPRLLIYDASKRVTGIPGRLSGSGSGTDFTLTISSLEPEDFALYYCQQSSNWPITFGQGTRVEIK
notes: Fully human IgG, constant region not specified; also called 10E3-17N
B2: 10F2-13 (antibody, V domains shown)
VH: EEQLVESGGDLVQPGRSLRLSCAASGFTFHDYTMHWVRQAPGKGLEWVSGISWNSGSLGYADSVKGRFTISRDNAKKSLYLQMNSLRAEDTALYYCAKDPSYGSGSYHSYYGMDVWGQGTTVTVSS
VL: EIVLTQSPATLSLSPGERATLSCWASQSISRYLVWYQQKCGQAPRLLIYEASKRATGIPVRFSGSGSGTDFTLTISSLESEDFAVYYCQQRFNWPLTFGGGTKVEIK
notes: Fully human IgG, constant region not specified; also called 10F2-13N; ab 10F2-13
B3: 6B9-4 (antibody, V domains shown)
VH: B2 VH with L58I, K77N, A88I, H108Y, S109Y
VL: B2 VL with W24R, I29V, R31S, K39R, C40P, K53N, V60A, F92S
notes: Fully human IgG, constant region not specified; also called 6B9-4N
B4: 9D4-7 (antibody, V domains shown)
VH: EVQLVESGGGLVQPGRSLRLSCAASGFTFYDYAMHWVRQAPGKGLEWVSGISWNSDTIGYADSVKGRFTISRDNAKNSLYLQMNSLRAEDTALYYCTKDGSYGHFYSGLDVWGQGTTVTVSS
VL: EIVLTQSPATLSLSPGERATLSCRASQSVSSYLAWYQQKPGQAPRLLIYVASNRATGIPARFSGSGSGTDFTLTISSLEPDDFAVYYCQQRYYWPLTFGGGTKVEIK
notes: Fully human IgG, constant region not specified; also called 9D4-7N
B5: 2B7-7 (antibody, V domains shown)
VH: EVQLVESGGGLVQPGRSLRLSCAASGFTFRDYTMHWVRQGPGKGLEWVSGISWNSDYIGYADSVKGRFTISRDNAKNSLYLQMNSLRVEDTALYYCAKLSGTYRDYFYGVDVWGQGTTVTVSS
VL: B4 VL with T20A, S31N, V50D, D81E, Y92S, Y93N, K107R
notes: Fully human IgG, constant region not specified; also called 2B7-7N
B6: 9C11-14 (antibody, V domains shown)
VH: QVQLVESGGDSVKPGGSLRLSCAASGFTFSDSYMTWIRQAPGKGLEWVSFISSSGSTIYYADSVKGRFTISRDNVKKSLYLQMNRLRAEDTAVYYCAREEPGNYVYYGMDVWGQGTTVTVSS
VL: EIVVTQSPATLSLSPGERATLSCRTSQTTTSYLAWYRQKPGQAPRLLIYDASNRAAGIPARFSGSGSGTDFTLTINSLEPEDFAVYYCQLRTNWITFGQGTRLEIK
notes: Fully human IgG, constant region not specified; also called 9C11-14N
B7: 8G6-5 (antibody, V domains shown)
VH: EVQLAESGGDLVQSGRSLRLSCAASGITFHDYAMHWVRQPPGKGLEWVSGISWNSDYIGYADSVKGRFTISRDNAKKSLYLQMNSLRPDDTALYYCVKDFHYGSGSNYGMDVWGQGTTVTVSP
VL: EIVMTQSPATLSMSPGERATLSCRASQSVSRNLAWYQQKVGQAPRLLISGASTRATGIPARFSGSGSGTEFTLTINSLQSEDFAVYYCQQSNDWPLTFGQGTRLEIK
notes: Fully human IgG, constant region not specified; also called 8G6-5N
B8: 6F6-1 (antibody, V domains shown)
VH: AVQLVESGGGLVQPGRSLRLSCAASGFTFRDYAMHWVRQGPGKGLEWVSGISWNTDYIGYADSVKGRFTISRDNAKNSLYLQMNSLRPEDTALYYCAKDARYGRDNYYGMDVWGQGTTVTVSS
VL: EIVMTQSPATLSVSPGERATLSCRASQSVSHNLAWYQQKPGQAPRLLIYGAYTRATGIPDRFSGTGSGTEFTLTISSLQSEDFAVFYCQQYNNWPLTFGGGTKVEIK
notes: Fully human IgG, constant region not specified; also called 6F6-1N
B9: 9E4-20 (antibody, V domains shown)
VH: B8 VH with A1E, R30Y, G40A, T55S, P88A, D105N, Q115P
VL: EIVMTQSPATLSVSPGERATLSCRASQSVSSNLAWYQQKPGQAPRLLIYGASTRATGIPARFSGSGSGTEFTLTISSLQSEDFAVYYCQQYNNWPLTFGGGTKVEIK
notes: Fully human IgG, constant region not specified; also called 9E4-20N

molecular target: T1, human CD20; experiment: cell-based or functional assay

| CDC, Daudi EC50 [nM] | CDC, RL EC50 [nM] | Binder |
| --- | --- | --- |
| 0.59 | 7.8 | B1 |
| 0.17 | 0.36 | B2 |
| 0.34 | 0.97 | B3 |
| 0.22 | 0.83 | B4 |
| 0.24 | 1.03 | B5 |
| 7.14 | 12 | B6 |
| 0.21 | 1.06 | B7 |
| 0.56 | 1.2 | B8 |
| 1.53 | 1.7 | B9 |

molecular target: T1, human CD20; experiment: cell-based or functional assay; remark: another data set of the same source

| Binder | % Cytotoxicity (CDC, Daudi), 0 hour [%] | % Cytotoxicity (CDC, Daudi), 1 hour [%] | % Cytotoxicity (CDC, Daudi), 6 hour [%] |
| --- | --- | --- | --- |
| B1 | 97 | 96.2 | 79.2 |
| B3 | 98.1 | 98.5 | 97.5 |
| B8 | 97.1 | 97.1 | 76.4 |
| B9 | 67.4 | 31.2 | 49.9 |

molecular target: T1, human CD20; experiment: cell-based or functional assay; remark: another data set of the same source

| Binder | % Cytotoxicity (CDC, Daudi), 0 hour [%] | % Cytotoxicity (CDC, Daudi), 1 hour [%] | % Cytotoxicity (CDC, Daudi), 6 hour [%] |
| --- | --- | --- | --- |
| B2 | 99.6 | 99.2 | 98.5 |
| B4 | 99.4 | 99 | 96 |
| B5 | 99.4 | 99.4 | 98.3 |
| B6 | 55.8 | 22.3 | 12.9 |
| B7 | 99.6 | 99.2 | 97.7 |

molecular target: T1, human CD20; experiment: flow cytometry, hCD20-transfected MG87 cells
Method: Briefly, parental MG87 and human CD20-transfected MG87 cells were incubated for 30 min at 4° C. with each of the 15 human antibodies and the two control antibodies, followed by incubation with PE-conjugated anti-human IgG antibody. Binding was assessed by flow cytometry. Fluorescence intensities were compared with binding to the parental cell line and control isotype-matched sample.

| Total Mean Fluorescent Intensity | Binder |
| --- | --- |
| 3070 | B1 |
| 3400 | B2 |
| 2930 | B3 |
| 3160 | B4 |
| 3480 | B5 |
| 2750 | B6 |
| 3410 | B7 |
| 3390 | B8 |
| 2910 | B9 |

molecular target: T1, human CD20; experiment: cell-based or functional assay; remark: another data set of the same source

| ADCC EC50 (pM), Daudi + PBMC [pM] | Binder |
| --- | --- |
| 1.2 | B1 |
| 6.68 | B2 |
| 4.27 | B3 |
| 1.53 | B4 |
| 1.99 | B5 |
| 10.2 | B6 |
| 14.8 | B7 |
| 5.15 | B8 |
| 2.37 | B9 |

Molecular target: T2, mutant human CD20 #3 (A170S, P172S)
Experiment: FACS, mutant-hCD20 MG87 cells; 100%=best antibody
Method: (§1) Briefly, approximately 1×10⁶ cells from each stably transfected cell line expressing a mutant human CD20 were collected and incubated with each anti-human antibody, at 10 μg/ml, on ice for 1 hr, followed by incubation with APC-conjugated goat anti-human IgG (Jackson Immunolabs), at 10 μg/ml, on ice for 45 min. For each antibody, binding to each mutant human CD20 was assessed by flow cytometry.

| Percent of Binding to Mutant Human CD20 [%] | Binder |
| --- | --- |
| 6 | B1 |
| 55 | B2 |
| 64 | B3 |
| 70 | B4 |
| 87 | B5 |
| 0 | B6 |
| 65 | B7 |
| 100 | B8 |
| 57 | B9 |

Molecular target: T3, mutant human CD20 #7 (Y77F, N163D)
Experiment: FACS, mutant-hCD20 MG87 cells; 100%=best antibody
Method: as §1

| Percent of Binding to Mutant Human CD20 [%] | Binder |
| --- | --- |
| 1 | B1 |
| 2 | B2 |
| 2 | B3 |
| 2 | B4 |
| 2 | B5 |
| 96 | B6 |
| 1 | B7 |
| 2 | B8 |
| 1 | B9 |

molecular target: T4, mutant human CD20 #2 (N163D); experiment: FACS, mutant-hCD20 MG87 cells; 100%=best antibody
Method: as §1

| Percent of Binding to Mutant Human CD20 [%] | Binder |
| --- | --- |
| 1 | B1 |
| 54 | B2 |
| 3 | B3 |
| 2 | B4 |
| 40 | B5 |
| 83 | B6 |
| 45 | B7 |
| 74 | B8 |
| 0 | B9 |

Source: US20090035322A1 (Regeneron, published 2009)
